Reference: US20170190753A1 (LABORATOIRE FRANCAIS DU FRACTIONNEMENT ET DES …, published 2017)

Biological target: C3 convertase complex (UniProt P01024 23-1663; P00751 260-764)
Assay: cell-based or functional assay
Wherever C3 convertase activity % of the control is given: test concentration or dose not given here.

C3 convertase complex, sequence (P01024 23-1663, chain 1 of 2): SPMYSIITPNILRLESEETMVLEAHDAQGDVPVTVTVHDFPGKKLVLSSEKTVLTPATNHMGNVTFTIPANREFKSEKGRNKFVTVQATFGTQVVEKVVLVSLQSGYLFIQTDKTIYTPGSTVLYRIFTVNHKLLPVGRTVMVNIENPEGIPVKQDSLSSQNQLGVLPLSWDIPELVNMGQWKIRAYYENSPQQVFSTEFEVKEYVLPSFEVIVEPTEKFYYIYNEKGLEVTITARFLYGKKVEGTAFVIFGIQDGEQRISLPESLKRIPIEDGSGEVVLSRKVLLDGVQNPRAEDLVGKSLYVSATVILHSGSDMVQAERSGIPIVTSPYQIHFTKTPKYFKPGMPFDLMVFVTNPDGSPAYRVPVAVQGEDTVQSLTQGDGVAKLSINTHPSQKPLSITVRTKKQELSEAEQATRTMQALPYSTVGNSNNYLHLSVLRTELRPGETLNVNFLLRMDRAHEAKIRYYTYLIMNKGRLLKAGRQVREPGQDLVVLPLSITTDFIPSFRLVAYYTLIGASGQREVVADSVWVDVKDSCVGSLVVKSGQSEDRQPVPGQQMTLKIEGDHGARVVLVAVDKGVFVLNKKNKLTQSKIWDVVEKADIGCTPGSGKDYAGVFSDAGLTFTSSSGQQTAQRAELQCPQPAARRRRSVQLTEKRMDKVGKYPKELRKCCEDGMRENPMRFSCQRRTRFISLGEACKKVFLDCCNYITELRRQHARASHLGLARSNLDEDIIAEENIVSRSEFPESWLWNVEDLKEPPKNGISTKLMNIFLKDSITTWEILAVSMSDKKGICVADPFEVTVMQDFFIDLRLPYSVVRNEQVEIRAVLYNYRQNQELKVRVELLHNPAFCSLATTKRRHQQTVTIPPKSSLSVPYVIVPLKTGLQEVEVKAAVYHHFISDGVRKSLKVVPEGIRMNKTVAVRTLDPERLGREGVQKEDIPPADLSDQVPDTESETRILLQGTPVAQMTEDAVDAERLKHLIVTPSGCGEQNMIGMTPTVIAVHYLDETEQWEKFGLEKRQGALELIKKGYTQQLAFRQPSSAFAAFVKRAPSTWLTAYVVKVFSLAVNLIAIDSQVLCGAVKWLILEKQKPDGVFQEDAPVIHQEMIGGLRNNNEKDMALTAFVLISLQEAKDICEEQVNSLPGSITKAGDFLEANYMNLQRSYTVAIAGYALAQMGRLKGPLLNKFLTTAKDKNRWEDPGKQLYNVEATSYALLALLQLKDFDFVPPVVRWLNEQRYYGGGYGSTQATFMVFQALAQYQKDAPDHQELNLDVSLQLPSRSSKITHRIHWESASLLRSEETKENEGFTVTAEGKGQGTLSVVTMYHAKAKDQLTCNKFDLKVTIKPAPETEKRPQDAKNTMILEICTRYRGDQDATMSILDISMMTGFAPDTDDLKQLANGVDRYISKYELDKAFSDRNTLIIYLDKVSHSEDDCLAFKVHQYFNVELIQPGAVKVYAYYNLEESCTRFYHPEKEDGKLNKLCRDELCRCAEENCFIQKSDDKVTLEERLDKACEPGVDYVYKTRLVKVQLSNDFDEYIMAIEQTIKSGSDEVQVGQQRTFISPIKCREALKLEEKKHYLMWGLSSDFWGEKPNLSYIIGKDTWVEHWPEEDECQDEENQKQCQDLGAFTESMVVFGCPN
C3 convertase complex, sequence (P00751 260-764, chain 2 of 2): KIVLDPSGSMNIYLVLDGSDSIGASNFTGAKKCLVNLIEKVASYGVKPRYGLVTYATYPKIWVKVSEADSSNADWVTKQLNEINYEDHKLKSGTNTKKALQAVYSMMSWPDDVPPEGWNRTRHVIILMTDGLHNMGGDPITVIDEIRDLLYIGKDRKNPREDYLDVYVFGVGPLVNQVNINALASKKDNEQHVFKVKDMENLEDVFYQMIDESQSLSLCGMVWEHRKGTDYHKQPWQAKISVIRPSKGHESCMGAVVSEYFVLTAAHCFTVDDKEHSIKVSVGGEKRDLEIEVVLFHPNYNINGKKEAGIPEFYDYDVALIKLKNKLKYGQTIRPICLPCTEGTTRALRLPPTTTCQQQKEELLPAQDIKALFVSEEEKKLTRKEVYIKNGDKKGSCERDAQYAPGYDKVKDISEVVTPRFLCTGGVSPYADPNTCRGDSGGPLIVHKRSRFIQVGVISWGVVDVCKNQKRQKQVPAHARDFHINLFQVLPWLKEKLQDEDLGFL

C3 convertase activity % of the control	C3 convertase activity IC50 [µg/mL]	Binder
5 % of the control	1.78	pCEP4-1NT11-19CT20 (other) EDCNELPPRRNTEILTGSWSDQTYPEGTQAIYKCRPGYRSLGNVIMVCRKGEWVALNPLRKCQKRPCGHPGDTPFGTFTLTGGNVFEYGVKAVYTCNEGYQLLGEINYRECDTDGWTNDIPICEVVKCLPVTAPENGKIVSSAMEPDREYHFGQAVRFVCNSGYKIEGDEEMHCSDDGFWSKEKPKCVEISCKSPDVINGSPISQKIIYKENERFQYKCNMGYEYSERGDAVCTESGWRPLPSCEEKSCDNPYIPNGDYSPLRIKHRTGDEITYQCRNGFYPATRGNTAKCTSTGWIPAPRCTLKPCDYPDIKHGGLYHENMRRPYFPVAVGKYYSYYCDEHFETPSGSYWDHIHCTQDGWSPAVPCLRKCYFPYLENGYNQNHGRKFVQGKSIDVACHPGYALPKAQTTVTCMENGWSPTPRCIRVKTCSKSSIDIENGFISESQYTYALKEKAKYQCKLGYVTADGETSGSITCGKDGWSAQPTCIKSCDIPVFMNARTKNDFTWFKLNDTLDYECHDGYESNTGSTTGSIVCGYNGWSDLPICYERECELPKIDVHLVPDRKKDQYKVGEVLKFSCKPGFTIVGPNSVQCYHFGLSPDLPICKEQVQSCGPPPELLNGNVKEKTKEEYGHSEVVEYYCNPRFLMKGPNKIQCVDGEWTTLPVCIVEESTGASGCGPPPPIDNGDITSFPLSVYAPASSVEYQCQNLYQLEGNKRITCRNGQWSEPPKCLHPCVISREIMENYNIALRWTAKQKLYSRTGESVEFVCKRGYRLSSRSHTLRTTCWDGKLEYPTCAKRGGSGHHHHHH
6 % of the control	1.99	pCEP4-1NT11-14CT20 (other) EDCNELPPRRNTEILTGSWSDQTYPEGTQAIYKCRPGYRSLGNVIMVCRKGEWVALNPLRKCQKRPCGHPGDTPFGTFTLTGGNVFEYGVKAVYTCNEGYQLLGEINYRECDTDGWTNDIPICEVVKCLPVTAPENGKIVSSAMEPDREYHFGQAVRFVCNSGYKIEGDEEMHCSDDGFWSKEKPKCVEISCKSPDVINGSPISQKIIYKENERFQYKCNMGYEYSERGDAVCTESGWRPLPSCEEKSCDNPYIPNGDYSPLRIKHRTGDEITYQCRNGFYPATRGNTAKCTSTGWIPAPRCTLKPCDYPDIKHGGLYHENMRRPYFPVAVGKYYSYYCDEHFETPSGSYWDHIHCTQDGWSPAVPCLRKCYFPYLENGYNQNHGRKFVQGKSIDVACHPGYALPKAQTTVTCMENGWSPTPRCIRVKTCSKSSIDIENGFISESQYTYALKEKAKYQCKLGYVTADGETSGSITCGKDGWSAQPTCIKSCDIPVFMNARTKNDFTWFKLNDTLDYECHDGYESNTGSTTGSIVCGYNGWSDLPICYERECELPKIDVHLVPDRKKDQYKVGEVLKFSCKPGFTIVGPNSVQCYHFGLSPDLPICKEQVQSCGPPPELLNGNVKEKTKEEYGHSEVVEYYCNPRFLMKGPNKIQCVDGEWTTLPVCIVEESTGASGCPPPPQIPNSHNMTTTLNYRDGEKVSVLCQENYLIQEGEEITCKDGRWQSIPLCVEKIPCSQPPQIEHGTINSSRSSQESYAHGTKLSYTCEGGFRISEENETTCYMGKWSSPPQCEGLPCKSPPEISHGVVAHMSDSYQYGEEVTYKCFEGFGIDGPAIAKCLGEKWSHPPSCIKTDCLSLPSFENAIPMGEKKDVYKAGEQVTYTCATYYKMDGASNVTCINSRWTGRPTCRDTSCVNPPTVQNAYIVSRQMSKYPSGERVRYQCRSPYEMFGDEEVMCLNGNWTEPPQCKDSTGKCGPPPPIDNGDITSFPLSVYAPASSVEYQCQNLYQLEGNKRITCRNGQWSEPPKCLHPCVISREIMENYNIALRWTAKQKLYSRTGESVEFVCKRGYRLSSRSHTLRTTCWDGKLEYPTCAKRGGSGHHHHHH
7 % of the control	2.04	pCEP4-1NT7-12CT20 (other) EDCNELPPRRNTEILTGSWSDQTYPEGTQAIYKCRPGYRSLGNVIMVCRKGEWVALNPLRKCQKRPCGHPGDTPFGTFTLTGGNVFEYGVKAVYTCNEGYQLLGEINYRECDTDGWTNDIPICEVVKCLPVTAPENGKIVSSAMEPDREYHFGQAVRFVCNSGYKIEGDEEMHCSDDGFWSKEKPKCVEISCKSPDVINGSPISQKIIYKENERFQYKCNMGYEYSERGDAVCTESGWRPLPSCEEKSCDNPYIPNGDYSPLRIKHRTGDEITYQCRNGFYPATRGNTAKCTSTGWIPAPRCTLKPCDYPDIKHGGLYHENMRRPYFPVAVGKYYSYYCDEHFETPSGSYWDHIHCTQDGWSPAVPCLRKCYFPYLENGYNQNYGRKFVQGKSIDVACHPGYALPKAQTTVTCMENGWSPTPRCIRVKTGASGCGDIPELEHGWAQLSSPPYYYGDSVEFNCSESFTMIGHRSITCIHGVWTQLPQCVAIDKLKKCKSSNLIILEEHLKNKKEFDHNSNIRYRCRGKEGWIHTVCINGRWDPEVNCSMAQIQLCPPPPQIPNSHNMTTTLNYRDGEKVSVLCQENYLIQEGEEITCKDGRWQSIPLCVEKIPCSQPPQIEHGTINSSRSSQESYAHGTKLSYTCEGGFRISEENETTCYMGKWSSPPQCEGLPCKSPPEISHGVVAHMSDSYQYGEEVTYKCFEGFGIDGPAIAKCLGEKWSHPPSCIKTDCLSLPSFENAIPMGEKKDVYKAGEQVTYTCATYYKMDGASNVTCINSRWTGRPTCRDTSCVNPPTVQNAYIVSRQMSKYPSGERVRYQCRSPYEMFGDEEVMCLNGNWTEPPQCKDSTGKCGPPPPIDNGDITSFPLSVYAPASSVEYQCQNLYQLEGNKRITCRNGQWSEPPKCLHPCVISREIMENYNIALRWTAKQKLYSRTGESVEFVCKRGYRLSSRSHTLRTTCWDGKLEYPTCAKRGGSGHHHHHH

Further lines, the binder ahead of its results:

Binder	C3 convertase activity % of the control	C3 convertase activity IC50 [µg/mL]
pCEP4-1NT9-15CT20 (other) EDCNELPPRRNTEILTGSWSDQTYPEGTQAIYKCRPGYRSLGNVIMVCRKGEWVALNPLRKCQKRPCGHPGDTPFGTFTLTGGNVFEYGVKAVYTCNEGYQLLGEINYRECDTDGWTNDIPICEVVKCLPVTAPENGKIVSSAMEPDREYHFGQAVRFVCNSGYKIEGDEEMHCSDDGFWSKEKPKCVEISCKSPDVINGSPISQKIIYKENERFQYKCNMGYEYSERGDAVCTESGWRPLPSCEEKSCDNPYIPNGDYSPLRIKHRTGDEITYQCRNGFYPATRGNTAKCTSTGWIPAPRCTLKPCDYPDIKHGGLYHENMRRPYFPVAVGKYYSYYCDEHFETPSGSYWDHIHCTQDGWSPAVPCLRKCYFPYLENGYNQNYGRKFVQGKSIDVACHPGYALPKAQTTVTCMENGWSPTPRCIRVKTCSKSSIDIENGFISESQYTYALKEKAKYQCKLGYVTADGETSGSITCGKDGWSAQPTCIKSCDIPVFMNARTKNDFTWFKLNDTLDYECHDGYESNTGSTTGSIVCGYNGWSDLPICYEREGASGCSQPPQIEHGTINSSRSSQESYAHGTKLSYTCEGGFRISEENETTCYMGKWSSPPQCEGLPCKSPPEISHGVVAHMSDSYQYGEEVTYKCFEGFGIDGPAIAKCLGEKWSHPPSCIKTDCLSLPSFENAIPMGEKKDVYKAGEQVTYTCATYYKMDGASNVTCINSRWTGRPTCRDTSCVNPPTVQNAYIVSRQMSKYPSGERVRYQCRSPYEMFGDEEVMCLNGNWTEPPQCKDSTGKCGPPPPIDNGDITSFPLSVYAPASSVEYQCQNLYQLEGNKRITCRNGQWSEPPKCLHPCVISREIMENYNIALRWTAKQKLYSRTGESVEFVCKRGYRLSSRSHTLRTTCWDGKLEYPTCAKRGGSGHHHHHH	5 % of the control	2.19
pCEP4-1NT10-15CT20 (other) EDCNELPPRRNTEILTGSWSDQTYPEGTQAIYKCRPGYRSLGNVIMVCRKGEWVALNPLRKCQKRPCGHPGDTPFGTFTLTGGNVFEYGVKAVYTCNEGYQLLGEINYRECDTDGWTNDIPICEVVKCLPVTAPENGKIVSSAMEPDREYHFGQAVRFVCNSGYKIEGDEEMHCSDDGFWSKEKPKCVEISCKSPDVINGSPISQKIIYKENERFQYKCNMGYEYSERGDAVCTESGWRPLPSCEEKSCDNPYIPNGDYSPLRIKHRTGDEITYQCRNGFYPATRGNTAKCTSTGWIPAPRCTLKPCDYPDIKHGGLYHENMRRPYFPVAVGKYYSYYCDEHFETPSGSYWDHIHCTQDGWSPAVPCLRKCYFPYLENGYNQNHGRKFVQGKSIDVACHPGYALPKAQTTVTCMENGWSPTPRCIRVKTCSKSSIDIENGFISESQYTYALKEKAKYQCKLGYVTADGETSGSITCGKDGWSAQPTCIKSCDIPVFMNARTKNDFTWFKLNDTLDYECHDGYESNTGSTTGSIVCGYNGWSDLPICYERECELPKIDVHLVPDRKKDQYKVGEVLKFSCKPGFTIVGPNSVQCYHFGLSPDLPICKEQVQSGASGCSQPPQIEHGTINSSRSSQESYAHGTKLSYTCEGGFRISEENETTCYMGKWSSPPQCEGLPCKSPPEISHGVVAHMSDSYQYGEEVTYKCFEGFGIDGPAIAKCLGEKWSHPPSCIKTDCLSLPSFENAIPMGEKKDVYKAGEQVTYTCATYYKMDGASNVTCINSRWTGRPTCRDTSCVNPPTVQNAYIVSRQMSKYPSGERVRYQCRSPYEMFGDEEVMCLNGNWTEPPQCKDSTGKCGPPPPIDNGDITSFPLSVYAPASSVEYQCQNLYQLEGNKRITCRNGQWSEPPKCLHPCVISREIMENYNIALRWTAKQKLYSRTGESVEFVCKRGYRLSSRSHTLRTTCWDGKLEYPTCAKRGGSGHHHHHH	6 % of the control	1.17
pCEP4-1NT8-12CT20 (other) EDCNELPPRRNTEILTGSWSDQTYPEGTQAIYKCRPGYRSLGNVIMVCRKGEWVALNPLRKCQKRPCGHPGDTPFGTFTLTGGNVFEYGVKAVYTCNEGYQLLGEINYRECDTDGWTNDIPICEVVKCLPVTAPENGKIVSSAMEPDREYHFGQAVRFVCNSGYKIEGDEEMHCSDDGFWSKEKPKCVEISCKSPDVINGSPISQKIIYKENERFQYKCNMGYEYSERGDAVCTESGWRPLPSCEEKSCDNPYIPNGDYSPLRIKHRTGDEITYQCRNGFYPATRGNTAKCTSTGWIPAPRCTLKPCDYPDIKHGGLYHENMRRPYFPVAVGKYYSYYCDEHFETPSGSYWDHIHCTQDGWSPAVPCLRKCYFPYLENGYNQNYGRKFVQGKSIDVACHPGYALPKAQTTVTCMENGWSPTPRCIRVKTCSKSSIDIENGFISESQYTYALKEKAKYQCKLGYVTADGETSGSITCGKDGWSAQPTCIKSGASGCGDIPELEHGWAQLSSPPYYYGDSVEFNCSESFTMIGHRSITCIHGVWTQLPQCVAIDKLKKCKSSNLIILEEHLKNKKEFDHNSNIRYRCRGKEGWIHTVCINGRWDPEVNCSMAQIQLCPPPPQIPNSHNMTTTLNYRDGEKVSVLCQENYLIQEGEEITCKDGRWQSIPLCVEKIPCSQPPQIEHGTINSSRSSQESYAHGTKLSYTCEGGFRISEENETTCYMGKWSSPPQCEGLPCKSPPEISHGVVAHMSDSYQYGEEVTYKCFEGFGIDGPAIAKCLGEKWSHPPSCIKTDCLSLPSFENAIPMGEKKDVYKAGEQVTYTCATYYKMDGASNVTCINSRWTGRPTCRDTSCVNPPTVQNAYIVSRQMSKYPSGERVRYQCRSPYEMFGDEEVMCLNGNWTEPPQCKDSTGKCGPPPPIDNGDITSFPLSVYAPASSVEYQCQNLYQLEGNKRITCRNGQWSEPPKCLHPCVISREIMENYNIALRWTAKQKLYSRTGESVEFVCKRGYRLSSRSHTLRTTCWDGKLEYPTCAKRGGSGHHHHHH	4 % of the control	1.87
